Target: the molecule itself
Assay: SEC-MALS; 50 μl of purified protein injected on Superdex 200 10/300; 50 mM Tris pH 7.5, 100 mM NaCl, 2% glycerol, 1 mM TCEP, 2 mM MgCl2, ±1 mM ATP; self-association (monomer or dimer)

B1: PDK1^SKD-PIF S241A (PIFtide fused through a (GS)4 linker to the C-terminus of the short kinase domain, S241A) (other)
chain: QPRKKRPEDFKFGKILGEGSFSTVVLARELATSREYAIKILEKRHIIKENKVPYVTRERDVMSRLDHPFFVKLYFTFQDDEKLYFGLSYAKNGELLKYIRKIGSFDETCTRFYTAEIVSALEYLHGKGIIHRDLKPENILLNEDMHIQITDFGTAKVLSPESKQARANAFVGTAQYVSPELLTEKSACKSSDLWALGCIIYQLVAGLPPFRAGNEYLIFQKIIKLEYDFPEKFFPKARDLVEKLLVLDATKRLGCEEMEGYGPLKAHPFFESVTWENLHQQTPPKLTGSGSGSGSQEMFRDFDYIADWC
notes: 3-phosphoinositide-dependent kinase 1 (PDK1), human, residues 73-359 (short kinase domain); minimal poly Gly-Ser (GS)4 linker; PIFtide, a peptide derived from the hydrophobic motif of PRK2; also called C-terminal PIFtide SKD fusion S241A; dimer; source: baculovirus-infected Sf9 insect cells, purified (glutathione sepharose, 3C cleavage, HiTrap Q, gel filtration); not shown: GST, N-terminal, …
stoichiometry N: 2

Reference: PMC8986801, “Activation of the essential kinase PDK1 by phosphoinositide-driven trans-autophosphorylation” (Nature Communications, 2022)
